Publication PMC11772548, “A Complex Interplay Between Melatonin and RORβ: RORβ is Unlikely a Putative Receptor for Melatonin as Revealed by Biophysical Assays” (Molecular Neurobiology, 2024)

Target: ligand-binding domain (LBD) of human RORβ (human, UniProt Q92753-2 250-450, Paper numbering follows the 459-aa isoform (RORβ1; Thr210, Cys262, LBD ending at the AF-2 end, 450), so +11 gives the 470-aa entry: printed 250-450 = 261-461. The paper's modelled LBD is 210-450 (= 22)
Experiment: ITC; 2 mM SRC-1 peptide titrated into 50-100 µM LBD of RORβ; 20 mM Tris-HCl pH 8.6, 2 mM CHAPS, 100 mM NaCl, 5 mM DTT; Malvern MicroCal PEAQ-ITC
Conditions: both partners purified

Sequence of ligand-binding domain (LBD) of human RORβ (Q92753 250-450): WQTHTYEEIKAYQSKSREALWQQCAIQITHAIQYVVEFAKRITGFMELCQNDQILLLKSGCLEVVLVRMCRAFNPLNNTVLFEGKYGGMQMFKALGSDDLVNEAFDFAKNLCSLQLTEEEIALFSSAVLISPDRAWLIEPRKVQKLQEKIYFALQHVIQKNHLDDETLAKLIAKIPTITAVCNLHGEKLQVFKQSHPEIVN

B1: SRC-1 co-activator peptide (peptide)
peptide: RHKILHRLLQEGSPS
notes: also called SRC-1 peptide; source: synthetic peptide (GenScript)
**Q.** What does the source list for B1?
**A.** Kd: 19.8 µM; dH: -1.1 kcal/mol
